From article PMC11869522, “Competitive displacement of lipoprotein lipase from heparan sulfate is orchestrated by a disordered acidic cluster in GPIHBP1” (Journal of Lipid Research, 2025)

How the values were obtained:
bovine LPL = experiment: Native PAGE binding to bovine LPL; settings: 4 µM LPL with 18 µM GPIHBP1, 30 min on ice; Coomassie staining
Description: (§1) Distinct impacts of disordered acidic clusters in GPIHBP1
(§2) To confirm interactions between puri fi ed human GPIHBP11–131, G P IH B P 1 Cluster1-neutral, or GPIHBP1 Cluster2-neutral with human, mouse, and bovine LPL, these protein pairs were incubated for 30 min on ice (4 µM LPL with 18 µM GPIHBP1) before they were analyzed by native PAGE. As th ese concentrations were well above t he K D of 0.2 nM for the wildtype LPL•GPIHBP1 interaction, LPL is saturated with GPIHBP1 in these experiments (1). […]
(§3) spect r a for the purified GPIHBP1 variants wer e r ecor ded at 25°C in Helman cuvettes (path- length of 1 mm) with a scan rate of 50 nm/ min c ove r i ng the range of 190- 250 nm, averaging three scans for each protein. Spectra for the pr ote i ns were compared after converting to molar ellipticity using the following equation, […] where, Mw is the molecular weight of the protein, c is the protein concentration in g/l, l is the pat h-length of the cuvette, Nr number of amino acid residues in the protein.
(§4) Figure S1 : Binding of GPIHBP1 charge mutants to LPL as assessed by Native PAGE. The electrophoretic mobility of GPIHBP1 variants alone or in presence of purified human LPL ( A), b ovine LPL (B), and murine LPL (C) was assessed by native PAGE followed by Coomassie blue staining. […]

human LPL = experiment: Native PAGE binding to human LPL; settings: 4 µM LPL with 18 µM GPIHBP1, 30 min on ice; Coomassie staining
Description: as §1, §2, §3, §4

bLPL [1] = experiment: Protein stability by differential scanning fluorimetry (nano-DSF, turbidity); parameters: species or system bovine; settings: 10 μM bLPL with 15 μM GPIHBP1 variant; 10 mM HEPES, 150 mM NaCl pH 7.4; 1°C/min, 15−95°C; back-reflection turbidity; triplicates
Description: The thermostability of bLPL in the presence or absence of GPIHBP1 was measured by differential scanning fluorometry (nano-DSF) with a Prometheus Panta (Nanotemper Technologies) using a previously published method ([22]). In brief; 10 μM bLPL alone or in the presence of 15 μM GPIHBP1^1–131, 15 μM GPIHBP1^Cluster1-neutral, or 15 μM GPIHBP1^Cluster2-neutra1 were prepared in 10 mM HEPES, 150 mM NaCl (pH 7.4) and heated in capillaries with a ramping temperature of 1°C/min from 15−95°C. Turbidity was measured by assessing back-reflection and was used as a surrogate marker for thermal unfolding ([20]). All samples were measured in triplicates.
Next, we probed if recombinant GPIHBP1^1–131 with defined neutralizations of charge-clusters 1 or 2 had distinct impacts on their ability to protect bLPL from ANGPTL4-mediated inactivation. […]
Fig. 4 GPIHBP1 clusters 1 and 2 have distinct impacts on LPL stability and inactivation by ANGPTL4. […] LPL activity was measured by the release of free fatty acids from Intralipid using the NEFA 2 assay. […] B: Thermostability of 10 μM bLPL in the presence of 15 μM of the different GPIHBP1 charge variants using Tturbidity measured by Prometheus Panta™ as a surrogate marker for unfolding ([20]).

bLPL [2] = experiment: Lipase activity assay, protection against ANGPTL4-catalyzed LPL inactivation; format: biochemical, bovine; settings: 30 nM bLPL, 30 nM ANGPTL4, 300 nM GPIHBP1 variant, room temperature up to 60 min; Intralipid, NEFA; triplicates

B1: GPIHBP1^Cluster2-neutral: GPIHBP1 mutant with all Glu/Asp replaced by Gln/Asn at residues 19–30 (protein)
chain: QTQQEEEEEDEDHGPDDYNQQNQNQVQQQQTNRLPGGGSRVLLRCYTCKSLPRDERCNLTQNCSHGQTCTTLIAHGNTESGLLTTHSTWCTDSCQPITKTVEGTQVTMTCCQSSLCNVPPWQSSRVQDPTG
modifications: Tyr18 sulfation absent; one bi-antennary N-linked glycosylation; left off: uPAR domain III, N-terminal, cleaved
Bovine LPL
  binding to bLPL as judged by native PAGE: bound
Human LPL
  binding to hLPL as judged by native PAGE: bound
bLPL [1]
  Tturbidity (thermal unfolding and aggregation of bLPL): 48.8 ± 0.1 °C

B2: GPIHBP1^Cluster1-neutral: GPIHBP1 mutant with all Glu/Asp replaced by Gln/Asn at residues 1–17 (protein)
chain: QTQQQQQQQNQNHGPNNYDEEDEDEVEEEETNRLPGGGSRVLLRCYTCKSLPRDERCNLTQNCSHGQTCTTLIAHGNTESGLLTTHSTWCTDSCQPITKTVEGTQVTMTCCQSSLCNVPPWQSSRVQDPTG
modifications: Tyr18 sulfation present in less than 40%; one bi-antennary N-linked glycosylation; left off: uPAR domain III, N-terminal, cleaved
Bovine LPL
  binding to bLPL as judged by native PAGE: bound
Human LPL
  binding to hLPL as judged by native PAGE: bound
bLPL [2]
  protection of bLPL from ANGPTL4-mediated inactivation (time-dependent decay of LPL activity): greater efficacy than GPIHBP1^Cluster2-neutral
bLPL [1]
  Tturbidity (thermal unfolding and aggregation of bLPL): 50.4 ± 0.2 °C
